Where “and” joins values, the source holds several entries; their conditions need not be identical. Equal entries are not always repeated. Each block holds one substance with its values, some of them ahead of it.
Legend:
[1] = target: CsGSIb EVK138DIQ mutant (Camellia sinensis)
[2] = target: CsGSIb EVK138DIQ mutant (Camellia sinensis); assay: SEC-MALS; Superdex 200 10/300 GL with MALS and QELS; 50 mM KPi pH 7.0, 100 mM NaCl, 1 mM β-mercaptoethanol, 0.05 % NaN3; room temperature (~23 °C); self-association of the GS
[3] = target: CsGSIb EVK138DIQ mutant (Camellia sinensis); assay: AUC; sedimentation velocity, 0.1/0.25/0.5 mg/mL, 50 mM Tris-HCl pH 7.4, 100 mM NaCl, 1.5 mM β-mercaptoethanol, rotor at 20 °C (results: room temperature); global fit; decamer to two pentamers
[4] = target: CsGSIb I143L mutant (Camellia sinensis)
[5] = target: CsGSIb I143L mutant (Camellia sinensis); assay: SEC-MALS; Superdex 200 10/300 GL with MALS and QELS; 50 mM KPi pH 7.0, 100 mM NaCl, 1 mM β-mercaptoethanol, 0.05 % NaN3; room temperature (~23 °C); self-association of the GS
[6] = target: CsGSIb I143L mutant (Camellia sinensis); assay: AUC; sedimentation velocity, 0.1/0.25/0.5 mg/mL, 50 mM Tris-HCl pH 7.4, 100 mM NaCl, 1.5 mM β-mercaptoethanol, rotor at 20 °C (results: room temperature); global fit; decamer to two pentamers
[7] = target: glutamine synthetase CsGSIb from Camellia sinensis, wild type (Camellia sinensis)
[8] = target: glutamine synthetase CsGSIb from Camellia sinensis, wild type (Camellia sinensis); assay: SEC-MALS; Superdex 200 10/300 GL with MALS and QELS; 50 mM KPi pH 7.0, 100 mM NaCl, 1 mM β-mercaptoethanol, 0.05 % NaN3; room temperature (~23 °C); self-association of the GS
[9] = target: glutamine synthetase CsGSIb from Camellia sinensis, wild type (Camellia sinensis); assay: AUC; sedimentation velocity, 0.1/0.25/0.5 mg/mL, 50 mM Tris-HCl pH 7.4, 100 mM NaCl, 1.5 mM β-mercaptoethanol, rotor at 20 °C (results: room temperature); global fit; decamer to two pentamers
[10] = target: glutamine synthetase GmGSβ2 from Glycine max (Glycine max); assay: SEC-MALS; Superdex 200 10/300 GL with MALS and QELS; 50 mM KPi pH 7.0, 100 mM NaCl, 1 mM β-mercaptoethanol, 0.05 % NaN3; room temperature (~23 °C); self-association of the GS

- glutamine synthetase activity, increase over wild-type CsGSIb (1 μM monomer enzyme, 30 min, 37 °C) [1]: 64 fold
- fraction decameric [2]: 72%
- Kd [3]: 0.04 µM
Substance: CsGSIb EVK138DIQ mutant (enzyme)

- glutamine synthetase activity, increase over wild-type CsGSIb (1 μM monomer enzyme, 30 min, 37 °C) [4]: 76 fold
- fraction decameric [5]: > 95%
- Kd [6]: 0.01 µM
Substance: CsGSIb I143L mutant (enzyme)

- glutamine synthetase activity on raising the CsGSIb concentration from 1 μM to 5 μM (monomer) [7]: 30 fold
- fraction decameric [8]: 18%
- fraction pentameric [8]: 82%
- stoichiometry N [8]: 5 and 10
- Kd [9]: 0.27 µM
- stoichiometry N [9]: 10 and 5
Substance: glutamine synthetase CsGSIb from Camellia sinensis, wild type (enzyme)

- stoichiometry N [10]: 10
Substance: glutamine synthetase GmGSβ2 from Glycine max (enzyme)
